Laboratory results taken from patent publication US20250122267A1.

Molecular target: serum TGFβ1 of the treated mice (mouse) (UniProt P04202)
Assay: cell-based or functional assay

Chain of UniProt P04202 (P04202 279-390 limits assumed): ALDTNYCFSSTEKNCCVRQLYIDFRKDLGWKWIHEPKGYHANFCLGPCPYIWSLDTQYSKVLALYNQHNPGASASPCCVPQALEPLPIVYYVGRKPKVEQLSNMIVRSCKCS

For “sTGFbR2-Fc(igg2Ae), fusion of the mouse TGFbR2 extracellular domain with the mouse igg domain (Fc fusion)”, the serum TGFβ1 after administration of the AAV encoding the soluble receptor (FIG. 2, TGFb1 knockdown versus dosage) was < 95%.
